Experimental data reported in the supplement of paper PMC7877785.
± gives the uncertainty stated by the source.

Assay: self-splicing fitness, log relative to wild type (ln ratio); higher = more splicing; Tetrahymena group I intron in knt gene, E. coli kanamycin selection, DiMSum; sequences stand for … in CUCUCU…GGAGGGAAAAGUUAUCAGGCAUGCACCUGGUAGCUAGUCUUUAAACCAAUAGAUUGCAUCGGUUUAAAAGGCAAGACCGUCAAAUUGCGGGAAAGGGGUCAACAGCCGUUCAGUACCAAGUCUCAGGGGAAACUUUGAGAUGGCCUUGCAAAGGGUAUGGUAAUAAGCUGACGGACAUGGUCCUAACCACGCAGCCAAGUCCUAAGUCAACAGAUCUUCUGUUGAUAUGGAUGCAGUUCACAGACUAAAUGUCGGUCGGGGAAGAUGUAUUCUUCUCAUAAGAUAUAGUCGGACCUCUCCUUAAUGGGAGCUAGCGGAUGAAGUGAUGCAACACUGGAGCCGCUGGGAACUAAUUUGUAUGCGAAAGUAUAUUGAUUAGUUUUGGAGUACUCGUGGUCG
Method in brief: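 The eight P1ex-region nucleotides of an intron in the knt kanamycin-resistance gene on pET-22b(+) were all randomised and the library put into E. coli BL21(DE3). Six replicate transformations were grown overnight at 37°C or 30°C on LB agar with or without 25 μg/mL kanamycin, together with 100 μg/mL carbenicillin, 50 μM IPTG and 0.2% rhamnose. Colonies were pooled and amplicon-sequenced on an Illumina HiSeq 2500. Fitness from DiMSum is the error-weighted combination of wild-type-normalised replicate fold changes, kanamycin over none.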

In the case of AUGCAGCAAUAUUACGUGGA, the “self-splicing fitness (ln)” value (30 °C) is reported as -3.1 ± 0.29 and the “self-splicing fitness (ln)” value (37 °C) is reported as -1.73 ± 0.18.
In the case of AUGCAGCAAUAUUACGUGUC, the “self-splicing fitness (ln)” value (30 °C) is reported as -3.68 ± 0.18 and the “self-splicing fitness (ln)” value (37 °C) is reported as -3.18 ± 0.2.
In the case of AUGCAGCAAUAUUACGUGUU, the “self-splicing fitness (ln)” value (30 °C) is reported as -4.05 ± 0.16 and the “self-splicing fitness (ln)” value (37 °C) is reported as -2.66 ± 0.17.
In the case of AUGCAGCAAUAUUACGUUGA, the “self-splicing fitness (ln)” value (30 °C) is reported as -2.97 ± 0.14 and the “self-splicing fitness (ln)” value (37 °C) is reported as -2.41 ± 0.12.
With AUGGAGCAAUAUUACGAAGU the “self-splicing fitness (ln)” value (37 °C) was -1.77 ± 0.36.
With AUGGAGCAAUAUUACGACAA the “self-splicing fitness (ln)” value (30 °C) was -1.86 ± 0.22 and the “self-splicing fitness (ln)” value (37 °C) was -2.46 ± 0.22.
In the case of AUGGAGCAAUAUUACGACGU, the “self-splicing fitness (ln)” value (30 °C) is reported as -0.474 ± 0.09 and the “self-splicing fitness (ln)” value (37 °C) is reported as -0.306 ± 0.099.
For AUGGAGCAAUAUUACGACUA, the “self-splicing fitness (ln)” value (30 °C) was -1.08 ± 0.14 and the “self-splicing fitness (ln)” value (37 °C) was -1.33 ± 0.16.
With AUGGAGCAAUAUUACGACUG the “self-splicing fitness (ln)” value (30 °C) was -2.28 ± 0.3.
With AUGGAGCAAUAUUACGAGAA the “self-splicing fitness (ln)” value (37 °C) was -1.43 ± 0.34.
For AUGGAGCAAUAUUACGAGAG, the “self-splicing fitness (ln)” value (37 °C) was -2.04 ± 0.23.
For AUGGAGCAAUAUUACGAGUC, the “self-splicing fitness (ln)” value (30 °C) was -2.08 ± 0.41.
For AUGGAGCAAUAUUACGAUAU, the “self-splicing fitness (ln)” value (30 °C) was -1.77 ± 0.12 and the “self-splicing fitness (ln)” value (37 °C) was -1.17 ± 0.15.
With AUGGAGCAAUAUUACGAUGG the “self-splicing fitness (ln)” value (30 °C) was -2.22 ± 0.29 and the “self-splicing fitness (ln)” value (37 °C) was -2.47 ± 0.44.
For AUGGAGCAAUAUUACGAUUC, the “self-splicing fitness (ln)” value (30 °C) was -2.21 ± 0.3.
In the case of AUGGAGCAAUAUUACGCGAA, the “self-splicing fitness (ln)” value (30 °C) is reported as -1.66 ± 0.31 and the “self-splicing fitness (ln)” value (37 °C) is reported as -2.36 ± 0.29.
In the case of AUGGAGCAAUAUUACGCGAC, the “self-splicing fitness (ln)” value (30 °C) is reported as -1.94 ± 0.28 and the “self-splicing fitness (ln)” value (37 °C) is reported as -2.79 ± 0.43.
For AUGGAGCAAUAUUACGCGCC, the “self-splicing fitness (ln)” value (37 °C) was -1.2 ± 0.34.
With AUGGAGCAAUAUUACGCGUC the “self-splicing fitness (ln)” value (30 °C) was -4.02 ± 0.18 and the “self-splicing fitness (ln)” value (37 °C) was -2.79 ± 0.15.
With AUGGAGCAAUAUUACGCUGA the “self-splicing fitness (ln)” value (30 °C) was -3.48 ± 0.24 and the “self-splicing fitness (ln)” value (37 °C) was -3.11 ± 0.35.
In the case of AUGGAGCAAUAUUACGCUUU, the “self-splicing fitness (ln)” value (37 °C) is reported as -1.37 ± 0.46.
In the case of AUGGAGCAAUAUUACGGAGU, the “self-splicing fitness (ln)” value (37 °C) is reported as -2.34 ± 0.27.
In the case of AUGGAGCAAUAUUACGGCAA, the “self-splicing fitness (ln)” value (30 °C) is reported as -0.0716 ± 0.34 and the “self-splicing fitness (ln)” value (37 °C) is reported as -3.02 ± 0.47.
For AUGGAGCAAUAUUACGGCGA, the “self-splicing fitness (ln)” value (37 °C) was -1.68 ± 0.29.
With AUGGAGCAAUAUUACGGUCG the “self-splicing fitness (ln)” value (30 °C) was -2.63 ± 0.18 and the “self-splicing fitness (ln)” value (37 °C) was -0.839 ± 0.12.
In the case of AUGGAGCAAUAUUACGUCAC, the “self-splicing fitness (ln)” value (30 °C) is reported as -3.23 ± 0.37.
With AUGGAGCAAUAUUACGUCGA the “self-splicing fitness (ln)” value (30 °C) was -3.25 ± 0.3 and the “self-splicing fitness (ln)” value (37 °C) was -3.1 ± 0.43.
For AUGGAGCAAUAUUACGUCGU, the “self-splicing fitness (ln)” value (30 °C) was -2.38 ± 0.15 and the “self-splicing fitness (ln)” value (37 °C) was -1.45 ± 0.18.
In the case of AUGGAGCAAUAUUACGUGCA, the “self-splicing fitness (ln)” value (30 °C) is reported as -2.82 ± 0.21 and the “self-splicing fitness (ln)” value (37 °C) is reported as -1.65 ± 0.16.
In the case of AUGUAGCAAUAUUACGAAGU, the “self-splicing fitness (ln)” value (30 °C) is reported as -3.07 ± 0.23 and the “self-splicing fitness (ln)” value (37 °C) is reported as -0.943 ± 0.18.
With AUGUAGCAAUAUUACGACAA the “self-splicing fitness (ln)” value (30 °C) was -0.201 ± 0.091 and the “self-splicing fitness (ln)” value (37 °C) was 0.171 ± 0.11.
With AUGUAGCAAUAUUACGAUCA the “self-splicing fitness (ln)” value (30 °C) was -0.747 ± 0.22 and the “self-splicing fitness (ln)” value (37 °C) was -0.492 ± 0.18.
With AUGUAGCAAUAUUACGCAAG the “self-splicing fitness (ln)” value (30 °C) was -1.8 ± 0.14 and the “self-splicing fitness (ln)” value (37 °C) was -0.627 ± 0.14.
For AUGUAGCAAUAUUACGCCAU, the “self-splicing fitness (ln)” value (30 °C) was -2.41 ± 0.19 and the “self-splicing fitness (ln)” value (37 °C) was -2.18 ± 0.24.
For AUGUAGCAAUAUUACGCGAC, the “self-splicing fitness (ln)” value (30 °C) was -1.38 ± 0.17 and the “self-splicing fitness (ln)” value (37 °C) was -1.76 ± 0.36.
In the case of AUGUAGCAAUAUUACGCGCC, the “self-splicing fitness (ln)” value (30 °C) is reported as -0.455 ± 0.077 and the “self-splicing fitness (ln)” value (37 °C) is reported as -0.312 ± 0.096.
In the case of AUGUAGCAAUAUUACGCUGC, the “self-splicing fitness (ln)” value (30 °C) is reported as -2.72 ± 0.41 and the “self-splicing fitness (ln)” value (37 °C) is reported as -2.69 ± 0.48.
For AUGUAGCAAUAUUACGGAGU, the “self-splicing fitness (ln)” value (30 °C) was -3.01 ± 0.23 and the “self-splicing fitness (ln)” value (37 °C) was -1.2 ± 0.18.
For AUGUAGCAAUAUUACGGCAA, the “self-splicing fitness (ln)” value (30 °C) was 0.118 ± 0.11 and the “self-splicing fitness (ln)” value (37 °C) was -0.419 ± 0.12.
For AUGUAGCAAUAUUACGGCCA, the “self-splicing fitness (ln)” value (30 °C) was -0.669 ± 0.21 and the “self-splicing fitness (ln)” value (37 °C) was -0.586 ± 0.22.
For AUGUAGCAAUAUUACGGCCU, the “self-splicing fitness (ln)” value (30 °C) was 0.449 ± 0.097 and the “self-splicing fitness (ln)” value (37 °C) was 0.248 ± 0.12.
In the case of AUGUAGCAAUAUUACGGCGC, the “self-splicing fitness (ln)” value (30 °C) is reported as -0.704 ± 0.094 and the “self-splicing fitness (ln)” value (37 °C) is reported as -0.408 ± 0.12.
